The nature of this data set: collision cross section of modified peptide (TIMS, N2, iRT-aligned); higher = larger / more extended gas-phase ion. In outline:
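Collision cross section values rest on the Mason-Schamp equation applied to calibrated, run-aligned mobility data from synthetic peptides. Mobility (1/K0) was calibrated with three reference ions and aligned per run to the median iRT peptide deviation, and 1–3 technical replicates of the most abundant feature per charge state were averaged. Data came from a timsTOF Pro/HT in dda-PASEF mode (nitrogen, ~2.4 mbar) after a 120-min nanoflow C18 gradient at 60 °C.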

Where [1] appears, read: charge state: 2, modification: Propionyl.
The mark [2] stands for this setting: charge state: 2, modification: Succinyl.
[3] abbreviates: charge state: 2, modification: Trimethyl (K).
Where [4] appears, read: charge state: 3, modification: Trimethyl (K).
The mark [5] stands for this setting: charge state: 2, modification: hydroxyisobutyryl.
[6] abbreviates: charge state: 2, modification: Nitro (Y).
The mark [7] stands for this setting: charge state: 2, modification: Citrullination (R).
The mark [8] stands for this setting: charge state: 3, modification: Methyl (R).
Where [9] appears, read: charge state: 2, modification: Phospho (Y).
Setting [10] is: charge state: 2, modification: HexNAc (ST).
Setting [11] is: charge state: 2, modification: Acetyl (K).
The mark [12] stands for this setting: charge state: 3, modification: Acetyl (K).
[13] abbreviates: charge state: 3, modification: Biotin.
The mark [14] stands for this setting: charge state: 2, modification: Butyryl.
[15] abbreviates: charge state: 3, modification: Butyryl.
[16] abbreviates: charge state: 2, modification: Crotonyl.
[17] abbreviates: charge state: 3, modification: Crotonyl.
Setting [18] is: charge state: 3, modification: Dimethyl (K).
Where [19] appears, read: charge state: 2, modification: Formyl.
The mark [20] stands for this setting: charge state: 3, modification: Formyl.
Where [21] appears, read: charge state: 2, modification: Glutarylation.
Where [22] appears, read: charge state: 3, modification: Glutarylation.
Setting [23] is: charge state: 2, modification: GlyGly (K).
Setting [24] is: charge state: 3, modification: GlyGly (K).
Where [25] appears, read: charge state: 3, modification: Methyl (K).
Where [26] appears, read: charge state: 3, modification: Propionyl.
Where [27] appears, read: charge state: 3, modification: Succinyl.
[28] abbreviates: charge state: 3, modification: hydroxyisobutyryl.
Setting [29] is: charge state: 2, modification: Malonyl.

± gives the standard deviation.

Consider “LTSLNVKYNNDK [_LTSLNVK(Propionyl)YNNDK_]”, for which the collision cross section under setting [1] came to 410.81 ± 0.38 Å².
Regarding LTSLNVKYNNDK [_LTSLNVK(Succinyl)YNNDK_], under setting [2], the collision cross section worked out at 411.65 ± 1.1 Å².
As for “LTSLNVKYNNDK [_LTSLNVK(Trimethyl (K))YNNDK_]”, the collision cross section amounted to 406.52 ± 0.61 Å² under setting [3] and 461.22 ± 1.8 Å² under setting [4].
“LTSLNVKYNNDK [_LTSLNVK(hydroxyisobutyryl)YNNDK_]” showed a collision cross section under setting [5] of 415.97 ± 0.31 Å².
For the substance LVFDEYLK [_LVFDEY(Nitro (Y))LK_], the collision cross section under setting [6] was found to be 355.63 ± 0.17 Å².
“LVLPSQAQARLPSGEVVK [_LVLPSQAQAR(Citrullination (R))LPSGEVVK_]”: the collision cross section runs as follows: under setting [7], 464.28 ± 0.94 Å²; (charge state: 3, modification: Citrullination (R)) 522.33 ± 4.3 Å².
In the case of “LVLPSQAQARLPSGEVVK [_LVLPSQAQAR(Methyl (R))LPSGEVVK_]”, the collision cross section under setting [8] is 522.24 ± 0.66 Å².
As for LYAVHQEGNK [_LY(Nitro (Y))AVHQEGNK_], the collision cross section under setting [6] is reported as 359.52 ± 0.17 Å² and the collision cross section (charge state: 3, modification: Nitro (Y)) was 458.4 ± 0.23 Å².
On to LYAVHQEGNK [_LY(Phospho (Y))AVHQEGNK_], for which the collision cross section was 367.74 ± 0.74 Å² under setting [9] and 466.01 ± 0.98 Å² (charge state: 3, modification: Phospho (Y)).
The substance LYDIDVAK [_LY(Nitro (Y))DIDVAK_] came in with a collision cross section under setting [6] of 344.32 ± 0.56 Å².
Regarding LYDIDVAK [_LY(Phospho (Y))DIDVAK_], under setting [9], the collision cross section is given as 363.27 ± 0.78 Å².
For LYLPVQNK [_LY(Nitro (Y))LPVQNK_], the collision cross section under setting [6] worked out at 340.84 ± 0.55 Å².
On to LYLPVQNK [_LY(Phospho (Y))LPVQNK_], for which the collision cross section under setting [9] stood at 343.68 ± 6.9 Å².
Under setting [10], MFLSFPTTK [_MFLS(HexNAc (ST))FPTTK_] showed a collision cross section of 373.63 ± 0.17 Å².
Turning to MTLSVLSR [_MTLS(HexNAc (ST))VLSR_], the collision cross section under setting [10] is recorded as 352.44 ± 0.8 Å².
Consider “NLVTGDHIPTPQDLPQR [_NLVT(HexNAc (ST))GDHIPTPQDLPQR_]”, for which, where the note is “charge state: 3, modification: HexNAc (ST)”, the collision cross section is on record as 500.97 Å².
On to “PANEKATDDYHYEK [_PANEK(Acetyl (K))ATDDYHYEK_]”, for which the collision cross section was 436.41 ± 2.5 Å² under setting [11] and 502.57 ± 2 Å² under setting [12].
Substance “PANEKATDDYHYEK [_PANEK(Biotin)ATDDYHYEK_]” gave a collision cross section under setting [13] of 529.25 ± 3.6 Å².
As to “PANEKATDDYHYEK [_PANEK(Butyryl)ATDDYHYEK_]”, the collision cross section is given as 443.05 ± 0.53 Å² under setting [14] and 509.24 ± 1.8 Å² under setting [15].
“PANEKATDDYHYEK [_PANEK(Crotonyl)ATDDYHYEK_]”: the collision cross section by setting is: under setting [16], 442.98 ± 0.0094 Å²; under setting [17], 509.39 ± 1.3 Å².
In turn, “PANEKATDDYHYEK [_PANEK(Dimethyl (K))ATDDYHYEK_]” had a collision cross section under setting [18] of 491.56 Å².
For “PANEKATDDYHYEK [_PANEK(Formyl)ATDDYHYEK_]”, the collision cross section was 435.25 ± 0.72 Å² under setting [19] and 497.77 ± 2.4 Å² under setting [20].
For the substance “PANEKATDDYHYEK [_PANEK(Gluratylation)ATDDYHYEK_]”, the collision cross section by setting is: under setting [21], 448.09 ± 1.5 Å²; under setting [22], 511.51 ± 1 Å².
For the substance “PANEKATDDYHYEK [_PANEK(GlyGly (K))ATDDYHYEK_]”, the collision cross section under setting [23] is listed as 439.63 ± 1.2 Å² and the collision cross section under setting [24] was 506.82 ± 0.35 Å².
“PANEKATDDYHYEK [_PANEK(Malonyl)ATDDYHYEK_]” registered a collision cross section (charge state: 3, modification: Malonyl) of 498.89 ± 1.6 Å².
As to “PANEKATDDYHYEK [_PANEK(Methyl (K))ATDDYHYEK_]”, the collision cross section under setting [25] worked out at 492.44 ± 0.72 Å².
Under setting [26], “PANEKATDDYHYEK [_PANEK(Propionyl)ATDDYHYEK_]” gave a collision cross section of 507.47 ± 0.5 Å².
Take “PANEKATDDYHYEK [_PANEK(Succinyl)ATDDYHYEK_]”: the collision cross section by setting is: under setting [2], 446.9 ± 1.1 Å²; under setting [27], 500.9 ± 1.6 Å².
For “PANEKATDDYHYEK [_PANEK(Trimethyl (K))ATDDYHYEK_]”, the collision cross section under setting [4] is recorded as 499.05 Å².
As for “PANEKATDDYHYEK [_PANEK(hydroxyisobutyryl)ATDDYHYEK_]”, the collision cross section under setting [5] amounted to 446.18 ± 0.51 Å² and the collision cross section under setting [28] worked out at 509.04 ± 1.9 Å².
In the case of “PARGLYSR [_PAR(Citrullination (R))GLYSR_]”, under setting [7], the collision cross section is recorded as 324.52 ± 2.2 Å².
As to PARGLYSR [_PAR(Methyl (R))GLYSR_], the collision cross section is on record as 338.81 ± 0.66 Å² (charge state: 2, modification: Methyl (R)) and 407.19 Å² under setting [8].
Take “PASGAGAGAGAGKR [_PASGAGAGAGAGK(Acetyl (K))R_]”: the collision cross section is, setting by setting: under setting [11], 357.24 ± 1 Å²; under setting [12], 456.58 ± 2.9 Å².
As to “PASGAGAGAGAGKR [_PASGAGAGAGAGK(Biotin)R_]”, the collision cross section reads like this: (charge state: 2, modification: Biotin) 377.47 Å²; under setting [13], 490.64 Å².
Take “PASGAGAGAGAGKR [_PASGAGAGAGAGK(Butyryl)R_]”: the collision cross section under setting [14] came to 358.98 ± 1.3 Å² and the collision cross section under setting [15] is on record as 461.52 ± 2.9 Å².
For the substance “PASGAGAGAGAGKR [_PASGAGAGAGAGK(Crotonyl)R_]”, the collision cross section reads like this: under setting [16], 364.92 ± 9.9 Å²; under setting [17], 464.44 ± 2.8 Å².
Take “PASGAGAGAGAGKR [_PASGAGAGAGAGK(Dimethyl (K))R_]”: the collision cross section came to 385.92 ± 1.6 Å² (charge state: 2, modification: Dimethyl (K)) and 457.59 ± 1.6 Å² under setting [18].
As for “PASGAGAGAGAGKR [_PASGAGAGAGAGK(Formyl)R_]”, the collision cross section is, setting by setting: under setting [19], 349.96 ± 1.4 Å²; under setting [20], 453.33 ± 1.2 Å².
For “PASGAGAGAGAGKR [_PASGAGAGAGAGK(Gluratylation)R_]”, the collision cross section is 357.87 ± 1.2 Å² under setting [21] and 467.6 ± 2 Å² under setting [22].
In turn, “PASGAGAGAGAGKR [_PASGAGAGAGAGK(GlyGly (K))R_]” had a collision cross section under setting [23] of 395.09 ± 1.4 Å² and a collision cross section under setting [24] of 472.77 ± 1.1 Å².
Regarding “PASGAGAGAGAGKR [_PASGAGAGAGAGK(Malonyl)R_]”, under setting [29], the collision cross section came to 352.42 ± 0.026 Å².
As to “PASGAGAGAGAGKR [_PASGAGAGAGAGK(Methyl (K))R_]”, the collision cross section is reported as 381.78 ± 0.91 Å² (charge state: 2, modification: Methyl (K)) and 459.46 ± 3.9 Å² under setting [25].
“PASGAGAGAGAGKR [_PASGAGAGAGAGK(Propionyl)R_]”: the collision cross section was 359.78 ± 0.65 Å² under setting [1] and 464.2 ± 0.076 Å² under setting [26].
Consider “PASGAGAGAGAGKR [_PASGAGAGAGAGK(Succinyl)R_]”, for which the collision cross section is listed as 354.83 ± 0.23 Å² under setting [2] and 462.42 ± 2 Å² under setting [27].
With “PASGAGAGAGAGKR [_PASGAGAGAGAGK(Trimethyl (K))R_]”, the collision cross section was found to be 392.96 ± 2.2 Å² under setting [3] and 465.02 ± 1.8 Å² under setting [4].
Regarding “PASGAGAGAGAGKR [_PASGAGAGAGAGK(hydroxyisobutyryl)R_]”, the collision cross section is, setting by setting: under setting [5], 363.2 ± 0.9 Å²; under setting [28], 470.09 ± 2.8 Å².
Consider PATSYVR [_PATSY(Nitro (Y))VR_], for which, under setting [6], the collision cross section was found to be 318.95 ± 2.2 Å².
The substance PATSYVR [_PATSY(Phospho (Y))VR_] yielded a collision cross section under setting [9] of 328.8 ± 0.068 Å².
With PAVTAAPK [_PAVT(HexNAc (ST))AAPK_], the collision cross section under setting [10] is 333.39 ± 1 Å².
Consider PDTQYTGR [_PDTQY(Nitro (Y))TGR_], for which the collision cross section under setting [6] was determined as 325.57 ± 0.55 Å².
Under setting [9], PDTQYTGR [_PDTQY(Phospho (Y))TGR_] showed a collision cross section of 335.56 ± 0.067 Å².
In turn, “PGGEGPQCEKTTDVK [_PGGEGPQCEK(Acetyl (K))TTDVK_]” returned a collision cross section under setting [11] of 415.43 ± 2 Å².
Under setting [14], “PGGEGPQCEKTTDVK [_PGGEGPQCEK(Butyryl)TTDVK_]” had a collision cross section of 421.37 ± 0.77 Å².
The substance “PGGEGPQCEKTTDVK [_PGGEGPQCEK(Formyl)TTDVK_]” had a collision cross section under setting [19] of 413.32 Å².
As for “PGGEGPQCEKTTDVK [_PGGEGPQCEK(Gluratylation)TTDVK_]”, the collision cross section under setting [21] is reported as 428.07 ± 0.56 Å².
As for “PGGEGPQCEKTTDVK [_PGGEGPQCEK(GlyGly (K))TTDVK_]”, the collision cross section is on record as 422.06 ± 1.9 Å² under setting [23] and 492.2 ± 3 Å² under setting [24].
Turning to “PGGEGPQCEKTTDVK [_PGGEGPQCEK(Malonyl)TTDVK_]”, under setting [29], the collision cross section is recorded as 427.2 Å².
“PGGEGPQCEKTTDVK [_PGGEGPQCEK(Methyl (K))TTDVK_]” displayed a collision cross section under setting [25] of 460.64 Å².
“PGGEGPQCEKTTDVK [_PGGEGPQCEK(Succinyl)TTDVK_]”: under setting [2], the collision cross section stood at 437.41 ± 1.1 Å².

For the origin of these results see the supplement of paper PMC10598134.
